The text below walks through data of patent publication US20240376207A1 (JIANGSU HENGRUI PHARMACEUTICALS, published 2024).

B1: anti-PVRIG antibody 151 (antibody, human IgG4 S228P, F234A L235A, V domains shown)
VH: HVQLVESGGGSVQAGGSLRLSCVASASGFTYRPYCMAWFRQAPGKEREAVAGIDIFGGTTYADSVKGRFTASRDNAGFSLFLQMNDLKPEDTAMYYCAAGDSPDGRCPPLGQGLNYWGQGTQVTVSS
notes: no light chain
B2: anti-PVRIG antibody 39 (antibody, human IgG4 S228P, F234A L235A, V domains shown)
VH: QVQLVESGGGSVQAGGSLRLSCAASRYTSRTDCMGWFRQAPGKEREGVAHIDSDGIPRYVESVKGRFTISQDHAKNTLYLQMNSLKPEDSATYYCVVGFKFGDYCAPNDWGQGTQVTVSS
notes: no light chain
B3: positive antibody Tab5 (antibody, human IgG4 S228P, kappa, F234A L235A, V domains shown)
VH: EVQLVESGGGVVKPGGSLRLSCAASGFTFGTSSMNWVRQAPGKGLEWVAVISFDGTEIHYADSVKGRFTISRDNSKSTVFLQMNSLRPDDTALYYCAKGSGNIYFYSGMDVWGQGTTVTVSS
VL: DIQMTQSPSTLSASVGDRVTITCRAGQSISGWLAWFQQKPGKAPNLLIYETSTLESGVPSRFSGSGSGTEYTLTISSLQPDDFATYYCQQYYSYPLTFGQGTKVEIKR
notes: Variable regions of CPA.7.021 (WO2016134333A1) on human IgG4 (S228P/F234A/L235A/K447A) and human kappa constant regions
B4: anti-PVRIG antibody 30 (antibody, human IgG4 S228P, F234A L235A, V domains shown)
VH: HVQLVESGGGSVQAGGSLRLSCEASGYSYSGDCMGWFRRAPGKERDEGVATIDNAGRIKYADSVKGRFTISHGNGKYILYLQMNSLKPEDTDMYYCAAGWTFGGNCSPADWGQGTQVTVSS
notes: no light chain
B5: anti-PVRIG antibody 38 (antibody, human IgG4 S228P, F234A L235A, V domains shown)
VH: QVQLVESGGGSVQAGGSLRLSCAASPSTYGPSDMAWFRQAPGKQREGVATISAAGRLTYYTDSVRGRFTISRDNAKNTMYLQMNSLKPEDTAMYYCAADFAGGSSLFADYKYWGQGTQVTVSS
notes: no light chain
B6: humanized anti-PVRIG/TIGIT bispecific antibody 1708-20H5 (bispecific antibody, human IgG4 S228P, kappa)
heavy: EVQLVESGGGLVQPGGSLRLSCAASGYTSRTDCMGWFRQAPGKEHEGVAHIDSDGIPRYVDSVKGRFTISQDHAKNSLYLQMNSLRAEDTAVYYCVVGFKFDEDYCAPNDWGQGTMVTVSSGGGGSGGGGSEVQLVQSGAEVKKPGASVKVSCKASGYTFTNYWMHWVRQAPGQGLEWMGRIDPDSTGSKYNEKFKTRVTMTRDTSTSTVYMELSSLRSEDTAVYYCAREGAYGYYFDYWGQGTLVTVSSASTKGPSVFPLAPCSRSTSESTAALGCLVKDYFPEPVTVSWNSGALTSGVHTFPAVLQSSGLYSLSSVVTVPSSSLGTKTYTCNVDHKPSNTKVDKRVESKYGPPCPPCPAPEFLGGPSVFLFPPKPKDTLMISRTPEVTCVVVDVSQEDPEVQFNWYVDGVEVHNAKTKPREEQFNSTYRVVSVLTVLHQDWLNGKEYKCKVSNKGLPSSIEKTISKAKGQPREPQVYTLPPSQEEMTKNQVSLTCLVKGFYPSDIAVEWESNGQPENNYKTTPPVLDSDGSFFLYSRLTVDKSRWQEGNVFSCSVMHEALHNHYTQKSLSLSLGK
light: DIQMTQSPSSLSASVGDRVTITCRASENIYSYLAWYQQKPGKSPKLLIYNARTLAEGVPSRFSGSGSGTDFTLTISSLQPEDFATYYCQYHSGSPLPFGGGTKVEIKRTVAAPSVFIFPPSDEQLKSGTASVVCLLNNFYPREAKVQWKVDNALQSGNSQESVTEQDSKDSTYSLSSTLTLSKADYEKHKVYACEVTHQGLSSPVTKSFNRGEC
B7: humanized anti-PVRIG/TIGIT bispecific antibody 1708-30H2 (bispecific antibody, human IgG4 S228P, kappa)
heavy: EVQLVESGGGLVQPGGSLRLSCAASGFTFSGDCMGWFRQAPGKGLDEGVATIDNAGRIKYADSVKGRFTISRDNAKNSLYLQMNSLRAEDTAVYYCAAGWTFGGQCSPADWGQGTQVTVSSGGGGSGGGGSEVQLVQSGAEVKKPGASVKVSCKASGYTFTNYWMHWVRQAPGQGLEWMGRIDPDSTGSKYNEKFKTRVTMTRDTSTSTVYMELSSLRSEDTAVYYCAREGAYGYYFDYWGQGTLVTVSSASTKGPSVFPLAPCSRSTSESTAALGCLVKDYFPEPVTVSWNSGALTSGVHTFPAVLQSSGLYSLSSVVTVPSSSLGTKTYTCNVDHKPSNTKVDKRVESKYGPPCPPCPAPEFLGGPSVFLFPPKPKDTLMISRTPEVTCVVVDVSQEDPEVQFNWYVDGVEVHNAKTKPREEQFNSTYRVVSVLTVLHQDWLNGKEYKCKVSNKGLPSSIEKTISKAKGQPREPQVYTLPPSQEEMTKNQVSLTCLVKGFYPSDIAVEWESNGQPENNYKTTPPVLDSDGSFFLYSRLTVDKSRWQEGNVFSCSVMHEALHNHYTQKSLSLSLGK
light: B6 light

For one experiment, the target named is T1, mouse IgG2a Fc-tagged human PVRIG (h-PVRIG-mIgG2a Fc) recombinant protein (human, UniProt Q6DKI7 41-171, limits assumed).
T1 construct: bought from Acrobiosystems; not shown: mouse IgG2a Fc tag
T1 sequence (looked up): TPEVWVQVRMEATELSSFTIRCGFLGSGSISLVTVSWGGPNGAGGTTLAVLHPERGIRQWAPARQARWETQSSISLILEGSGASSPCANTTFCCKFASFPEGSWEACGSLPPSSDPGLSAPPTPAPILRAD
Put plainly: competition ELISA; coated h-PVRIG-mIgG2a Fc, competitor his-PVRL2. As to the method:
In this experiment, by in vitro blocking experiment, the ability of the selected anti-PVRIG antibodies to block the binding of human PVRIG to its ligand human PVRL2 was detected. Specifically, a mouse IgG2a Fc-tagged human PVRIG recombinant protein (h-PVRIG-mIgG2a Fc) was coated on a 96-well microplate, an anti-PVRIG antibody was added to fully bind to and occupy an epitope, then his-tagged PVRL2 (PV2-H52E2, AcroBiosystem) was added, and the binding amount of PVRIG and PVRL2 was calculated by detecting the his tag. The IC₅₀ value of the anti-PVRIG antibody for blocking the PVRIG active site was calculated.
(§1) The h-PVRIG-mIgG2a Fc protein (at a concentration of 1 μg/mL) was coated on the 96-well microplate at 100 μL per well, and incubated overnight at 4° C. The plate was washed three times with wash buffer at 250 μL per well. For each wash, the plate was shaken for 10 s to ensure adequate cleaning. A blocking solution was added at 300 μL/well, and the plate was incubated at room temperature for 1 h. The plate was washed three times with wash buffer at 250 μL per well. For each wash, the plate was shaken for 10 s to ensure adequate cleaning. 50 μL of diluted test anti-PVRIG antibody and 50 μL of his-tagged ligand PVRL2 were added to each well, and the plate was incubated at 37° C. for 1 h. The plate was washed three times with wash buffer at 250 μL per well. The HRP-labeled anti-his-tagged secondary antibody (Genscrpit) diluted at 1:2000 was added at 100 μL per well. The plate was incubated at 37° C. for 1 h. The plate was washed three times with wash buffer at 250 μL per well. TMB was added at 100 μL/well, and the plate was incubated in the dark for 15 min. 0.16 M sulfuric acid was added at 50 μL/well. OD values at 450 nm were measured using a Thermo MμtLtiSkanFc microplate reader, and the IC₅₀ values of the anti-PVRIG antibodies blocking the binding of PVRIG to PVRL2 were calculated.
In general terms: An ELISA detects its analyte on a solid surface through an enzyme-linked reagent.
By IC50 is commonly meant the midpoint of a concentration-inhibition curve. Regarding B1, the IC50 is 0.37 nM.

For B2, the IC50 was determined as 0.76 nM.

In the case of B3, the IC50 amounted to 1.16 nM.

Turning to B4, the IC50 is 1.11 nM.

For the molecule B5, the IC50 came to 0.93 nM.

The target in another experiment is T2, cynomolgus monkey PVRIG expressed on cells (cynomolgus monkey, UniProt A0A2K5WVV8 1-322).
T2 construct: whole, on cells; also called Monkey PVRIG FACS; cells overexpressing cynomolgus monkey PVRIG
T2 sequence: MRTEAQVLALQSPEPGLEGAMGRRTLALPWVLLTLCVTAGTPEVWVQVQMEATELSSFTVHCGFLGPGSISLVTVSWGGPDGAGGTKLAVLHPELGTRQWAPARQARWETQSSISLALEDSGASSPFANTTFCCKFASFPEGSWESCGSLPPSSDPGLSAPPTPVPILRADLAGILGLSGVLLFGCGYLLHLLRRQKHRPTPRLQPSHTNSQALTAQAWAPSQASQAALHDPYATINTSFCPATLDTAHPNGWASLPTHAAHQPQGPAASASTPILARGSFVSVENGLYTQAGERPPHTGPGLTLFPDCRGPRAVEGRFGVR
Put plainly: FACS, HEK293 cells overexpressing target. The source says:
(§2) A flow cytometer (FACS) was used to detect binding properties of anti-PVRIG antibodies. A cell strain overexpressing human or cynomolgus monkey PVRIG was constructed, and after the addition of the antibody, the activity of the binding of the antibody to the antigen was detected by the addition of a secondary antibody.
(§3) The expression plasmid carrying human or cynomolgus monkey PVRIG gene sequence was transfected into HEK293 cells, and the over-expressing stable transfection monoclonal cell strain was obtained by antibiotic screening and infinite dilution. Overexpressing cells were seeded into a 96-well plate at 2×10⁵ cells/per well. The cells were centrifuged at 300 g for 5 min, the supernatant was then removed, 100 μL of the test antibody was added, and the mixture was incubated at 4° C. for 1 h. The mixture was centrifuged, the supernatant was removed, the plate was washed 3 times with 200 μL of wash buffer (PBS+2% FBS), and then 100 μL of an anti-human IgG secondary antibody (Invitrogen, A-11013) labeled with Alexa Fluor 488 diluted at 1:500 was added. The mixture was incubated at 4° C. for 1 h. The plate was centrifuged, and the supernatant was removed. The plate was washed 3 times with 200 μL of wash buffer (PBS+2% FBS). The cells were resuspended in 100 μL of PBS and tested on a flow cytometer (BD FACS Calibur or BD FACS Canto_II).
On the technique in general: In flow cytometry, cells or beads pass a laser one at a time.
As a reminder, the EC50 is the concentration giving half of the maximal effect. Regarding B1, the EC50 was 2.23 nM.

In turn, B2 returned an EC50 of 6.97 nM.

Consider B3, for which the binding result was “no binding”.

The molecule B4 gave an EC50 of 0.02 nM.

In the case of B5, the midpoint of the response, the EC50, lay at 0.34 nM.

For a further experiment, the target named is T3, human PVRIG expressed on cells (human, UniProt Q6DKI7 41-326).
T3 construct: whole, on cells; also called Human PVRIG FACS; cells overexpressing human PVRIG
T3 sequence (looked up): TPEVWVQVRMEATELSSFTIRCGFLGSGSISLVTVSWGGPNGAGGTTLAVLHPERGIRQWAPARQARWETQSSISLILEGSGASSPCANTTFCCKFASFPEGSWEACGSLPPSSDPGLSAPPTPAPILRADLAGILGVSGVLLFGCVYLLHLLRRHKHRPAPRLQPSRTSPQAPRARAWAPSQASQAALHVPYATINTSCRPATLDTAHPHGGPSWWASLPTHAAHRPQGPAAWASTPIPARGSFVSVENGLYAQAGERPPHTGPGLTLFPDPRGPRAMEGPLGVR
Put plainly: FACS, HEK293 cells overexpressing target.
Source text: as §2, §3
Consider B1, for which the EC50 turned out to be 0.01 nM.

B2 displayed an EC50 of 0.004 nM.

Molecule B3 displayed an EC50 of 2.13 nM.

On to B5, for which the EC50 came to 0.24 nM.

The next experiment concerns the target T3, human PVRIG expressed on cells. Put plainly: cell-based or functional assay.
Regarding B1, the “MLR IFNγ (pg/mL), 4 nM antibody” value is 1500 pg/mL; the “MLR IFNγ (pg/mL), 20 nM antibody” value was 2220 pg/mL; the “MLR IFNγ (pg/mL), 100 nM antibody” value was 1800 pg/mL.

For the molecule B3, the “MLR IFNγ (pg/mL), 4 nM antibody” value turned out to be 912 pg/mL; the “MLR IFNγ (pg/mL), 20 nM antibody” value was 1420 pg/mL; the “MLR IFNγ (pg/mL), 100 nM antibody” value is 2350 pg/mL.

Consider B4, for which the “MLR IFNγ (pg/mL), 4 nM antibody” value was 1680 pg/mL; the “MLR IFNγ (pg/mL), 20 nM antibody” value was 1910 pg/mL; the “MLR IFNγ (pg/mL), 100 nM antibody” value was 1580 pg/mL.

Regarding B5, the “MLR IFNγ (pg/mL), 4 nM antibody” value is 1390 pg/mL; the “MLR IFNγ (pg/mL), 20 nM antibody” value turned out to be 2020 pg/mL; the “MLR IFNγ (pg/mL), 100 nM antibody” value worked out at 2130 pg/mL.

For another experiment, the target named is T1, mouse IgG2a Fc-tagged human PVRIG …. Put plainly: competition ELISA; human PVRIG coated, competitor human PVRL2. As to the method:
as §1
Binding of the humanized anti-PVRIG/TIGIT bispecific antibodies to human and cynomolgus monkey PVRIG and their blocking of the ligand of human PVRIG were detected according to the methods of Examples 4, 5 and 6.
With B6, the concentration for half-maximal inhibition (IC50) was found to be 0.628 nM.

As to B7, the IC50 was determined as 0.552 nM.

For B3, the IC50 was 0.964 nM.

A further experiment addresses T3, human PVRIG expressed on cells. Put plainly: cell-based or functional assay. The source holds these as a separate data set.
Turning to B1, the “reporter gene activity, fold of the positive antibody Tab5” value was in the range of 3.7 to 18.5 fold.

As for B5, the “reporter gene activity, fold of the positive antibody Tab5” value was 3.7 to 18.5 fold.
